This is an account of results in publication PMC6017478, “Exploring Alternative Radiolabeling Strategies for Sialic Acid-Binding Immunoglobulin-Like Lectin 9 Peptide: [^68Ga]Ga- and [^18F]AlF-NOTA-Siglec-9” (Molecules : A Journal of Synthetic Chemistry and Natural …, 2018).

Positions of bridges follow the written chain, without caps; N, C: chain ends. Residues, ends and D or L forms follow the SMILES beside them. Groups on a side chain read outwards from the residue. *: point of attachment. NOTA = O=C(O)CN1CCN(CC(=O)O)CCN(CC(=O)*)CC1; AEEA = NCCOCCOCC(=O)O

The format of data set [1] is physicochemical. The note with it: pH 7.6. As for the experimental part: The distribution coefficient (Log D) was measured by adding 5 kBq of tracer into a mixture of PBS (pH 7.6) and 1-octanol (1:1, v/v). The solution was mixed thoroughly for 5 min at room temperature. After separation of phases by centrifugation (12,000× g, 6 min), 100 µL aliquots of each phase layer were taken for γ-counting to determine Log D. The test was repeated three times. Log D was calculated as Log D=log10 counts per minute in octanol/counts per minute in PBS .

For data set [2] the following is noted: rat, in vivo, iv. As to the method:
The rats were subcutaneously injected with 50 µL turpentine oil (Sigma-Aldrich) into the right shoulder area (foreleg) to induce skin/muscle inflammation, which was allowed to develop for 24 h prior to PET imaging. For imaging and ex vivo analysis, the rats were anesthetized using isoflurane and intravenously injected with 17.7 ± 3.4 MBq of one of the two radiotracers via the tail vein cannula. Immediately after injection a dynamic 60-min PET scan was performed on four rats for [^68Ga]Ga-NOTA-Siglec-9 and four rats for [^18F]AlF-NOTA-Siglec-9. The data were acquired in list-mode and iteratively reconstructed with a 3-D ordered subsets expectation maximization algorithm with 8 iterations, 16 subsets, and a 2-mm full-width at half-maximum post-filter into 6 × 10 s, 4 × 60 s, 5 × 300 s, and 3 × 600 s time frames. After imaging, the rats were euthanized, and various tissues, including inflamed skin/muscle (inflamed area) from the right foreleg, skin from the left foreleg (control area), and healthy muscle from the left hind leg, were excised, weighed, and measured with a γ-counter. The ex vivo radioactivity measurements were decay-corrected from the time of injection, and the results were expressed as SUV. Plasma protein binding was measured from plasma samples taken from 60 min post-injections. […] Radioactivity of both the precipitate and the supernatant was measured by γ-counting.

In general, Log D refers to the decadic logarithm of the distribution of all forms, ionised or not, between an organic phase and buffer at a given pH.

With `CC(C)C[C@@H]1NC(=O)CNC(=O)[C@H](CCCNC(=N)N)NC(=O)[C@H](Cc2c[nH]c3ccccc23)NC(=O)[C@H](CO)NC(=O)[C@H](CC(C)C)NC(=O)[C@H](CO)NC(=O)[C@H](CC(C)C)NC(=O)[C@H](CCCNC(=N)N)NC(=O)[C@H](C)NC(=O)[C@@H](N)CSSC[C@@H](C(=O)N2CCC[C@H]2C(=O)N[C@@H](CO)C(=O)N[C@@H](CCCCNC(=O)COCCOCCNC(=O)CN2CCN(CC(=O)O)CCN(CC(=O)O)CC2)C(=O)O)NC(=O)[C@H](CC(C)C)NC(=O)[C@H]([C@@H](C)O)NC1=O` [[^68Ga]Ga-NOTA-Siglec-9] [metal not drawn] (H-CARLSLSWRGLTLCPSK([AEEA-NOTA])-OH; disulfide 1-14), in data set [1], the pH-dependent lipophilicity (Log D) is −3.2 ± 0.3. Also, the Plasma protein binding in data set [2] stood at 31.4 ± 3.4%.
